Source: the supplement of paper PMC9170038

Tested on: K4 kissing-loop RNA reporter
Assay: apparent KD of K4 kissing-loop reporter; higher = weaker reporter binding
Conditions: Eterna round: R107
Description: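 RNA-MaP round R107: designed RNA switches with theophylline, tryptophan, arginine or FMN aptamers are transcribed on-chip within common flanks. They are titrated with a labelled K4 kissing-loop RNA reporter in RNA-MaP buffer (100 mM Tris pH 7.5, 80 mM KCl, 4 mM MgCl2), without ligand or with the indicated ligand. Median apparent KD per design.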

[1] = input ligand: theophylline 20 uM
[2] = input ligand: tryptophan 2.4 mM
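Note: bound reporter read as fluorescence of individual clusters on recovered sequencing chips by microscopy, with normalized cluster intensities fitted with a binding model.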

Sequence | apparent KD of K4 kissing-loop reporter (input ligand: FMN 200 uM) [µM] | apparent KD of K4 kissing-loop reporter (input ligand: arginine 13.2 mM) [µM] | apparent KD of K4 kissing-loop reporter (input ligand: none) [µM] | apparent KD of K4 kissing-loop reporter [1] [µM] | apparent KD of K4 kissing-loop reporter [2] [µM]
AAGUGUUCUAGUGAUACCAGACAUUUCUAUUUUAUCUUUAUAGCUAAGUGAUGUUUAGCAGUCCCUUGGCAGCACUAUUUCACUA [JR_SSTheophyB_Sub017] | 0.123 | 0.155 | 0.137 | 0.16 | 0.147
AAUAAAAUCACGGCCGCCACUGAUGCUAAUAUUAGCAGUGAUGUUGCUAUGUAGAUUUUAUUUAACAGGACCGGGUGAAUAUUUA [JR_SSTryptoB_Sub025] | 0.198 | 0.124 | 0.162 | 0.17 | 0.269
AAUAAAAUCACGGCCGCCACUGAUUUCCAUAUUAGGAGUGAUGUUCCUAUGACUAUAUAAUUUAACAGGACCGGGUGAAUAUUUA [JR_ExcTryptoB_Sub012] | 0.11 | 0.112 | 0.108 | 0.111 | 0.0935
AAUAACUUGCAGUGAUGUUGCAAGAAAGCUCAGGAUAUCAGGAAACUGAGAAGGGAGCAUCCUGAGCAAACAUCACAACUUAGGA [[K1]-[K2]-[F1]-[F2]-[F]'-[K]'-[F]''_Design2] | 0.368 | 0.295 | 0.406 | 0.448 | 0.361
AAUAAGGUCGCCGAUACCAGCGCAGGCAGAGCAAAGCUCUGCCGGGUAGUGAUGUUACCGCGCCCUUGGCAGCGGUGGCACGACC [Omei KL Theo B SS C v1] | 0.579 | 0.435 | 0.34 | 0.398 | 0.275
AAUAAUAGUUGAGCAGGCGUGGUCUGAGAUACCAGUGAUUUCGAUCACCCUUGGCAGCUCAGCAUGAGUGAUGUUCAUGCUAUUC [Theo A Ex t10] | 0.147 | 0.114 | 0.134 | 0.145 | 0.131
AAUAAUGAUGUUUAGGAAAGUAAAAUGGAAGGAGCGUGCGAAAGCACAGGUAGGUCGCCAGUGAUGUUGGAACCUGAGCAUCAAA [#SwitchBubble 19 #K4Late] | 0.907 | 0.633 | 0.836 | 0.925 | 0.757
AAUACGAAGCAGUGAUGUUGCUUAUGAGAAGGAGCGCACGAAAGUGCAGGUAGGUCGCUCAGCCAUGUGGACGAAAACGUCCACA [whbob_SS_Arginine_A_sa109] | 0.0833 | 0.102 | 0.0892 | 0.102 | 0.0805
AAUACUAUCAGAAGGAGCGUGGAAUAUUCAUCUGUAUCUAAUACGAGUGAUGUUCGUAAUUCACAGGUAGGUCGCUGAUCAAUAA [whbob_Ex_Arginine_B_2th156] | 0.246 | 0.249 | 0.267 | 0.269 | 0.213
AAUACUAUCAGAAGGAGCGUGGAAUAUUCAUCUGUAUCUAAUACGAGUGAUGUUCGUAAUUCACAGGUAGGUCGCUGAUUAAUAC [whbob_Ex_Arginine_B_2th158] | 0.265 | 0.245 | 0.288 | 0.304 | 0.245
AAUAGGGAGUGAUGUUCCCUCACUUAUGAUACCAGUGCCAUCGGACACCCUUGGCAGCAUACGGGCAGUGAUGUUGUUCUUGGAA [Exclusion Theophylline A GF 25] | 0.129 | 0.148 | 0.156 | 0.155 | 0.119
AAUAUAAAGUCGGCCGCCACUGGAUUUAUAUUUGUUAAAUCUGGAUCAAAGUGAUGUUUUGAGUCCAGGACCGGGACAAUUGUUA [JR_ExcTryptoB_Sub001] | 0.123 | 0.117 | 0.12 | 0.122 | 0.203
AAUAUAGUGAUGUUAUAUAAGAAGGAGUUACGAGGACCGGUACGGCCGCCACUCGAAACGAGUGAGGGCUUGGGAGAUUGGGCCC [SSTryptA.I] | 0.404 | 0.346 | 0.444 | 0.377 | 0.264
AAUCCUAACGGAGUGAUGUUCCGUAGCGAUACCAGCCAUUGCGAUGGCCCUUGGCAGCGCUAUAAGCAUUGCUAGUAAGGGCCAA [Theo A Ex t7] | 0.167 | 0.148 | 0.168 | 0.163 | 0.159
AAUCGAGUGAUGUUCGAUGUAGUGCAUUCAGAGGAUAUAGGAUGGGCUAGAAGGCUGAAAAGUGCUUCGAGUGAUGUUCGAAGAU [Exclusion FMN A GF 4] | 0.0471 | 0.049 | 0.0767 | 0.0497 | 0.056
AAUGUGCAGGGAAGGAGCGUAGUCCAGUGCUGUUGGAGUUAAAUACCAGUGAUGUUGGUUAUACAGGUAGGUCGCCCUAAAGCGC [whbob_Ex_Arginine_B_2th160] | 0.141 | 0.176 | 0.158 | 0.211 | 0.129
AAUUACCUAGUGAUGUUGGGAAUAAUAUAACGAGGACCGGUACGGCCGCCACUCGAGGUCCUAAUUAAGAACGCGAAAGCGAAGA [Tryptophan A Exclusion; Euphoria Solution] | 0.0944 | 0.0605 | 0.0931 | 0.0668 | 0.189
AAUUUAUAUUUAUUCUUUAAUUGUUCAGAAGGAGCGUGAAUUAUCACAGGUAGGUCGCUGAGCUAGUGAUGUUAGCUAUAUACUA [JR_ExcArginiA_Sub008] | 0.0655 | 0.105 | 0.0628 | 0.0828 | 0.0584
AAUUUAUUAACUGAUACCAGACUAAUUUUAUUUAUUAAGUCAAGUGAUGUUUGACUUUAUGUCCCUUGGCAGCAGAAUUAAUUAA [JR_SSTheophyB_Sub019] | 0.126 | 0.143 | 0.124 | 0.112 | 0.128
AAUUUAUUAACUGAUACCAGACUUUAGCGUGUUUAUAAGUCAAGUGAUGUUUGACUAUUAGUCCCUUGGCAGCAGUAUUUAUUAA [JR_SSTheophyB_Sub022] | 0.149 | 0.131 | 0.134 | 0.114 | 0.12
AAUUUGUAUUUAUUCUUUAAAUGUUCAGAAGGAGCGUGAAUUAUCACAGGUAGGUCGCUGAGCUAGUGAUGUUAGCUAUACACUA [#01 K4 Arginine A Exclusion] | 0.0985 | 0.201 | 0.127 | 0.181 | 0.091

Sequence | apparent KD of K4 kissing-loop reporter (input ligand: FMN 200 uM) [µM] | apparent KD of K4 kissing-loop reporter (input ligand: arginine 13.2 mM) [µM] | apparent KD of K4 kissing-loop reporter (input ligand: none) [µM] | apparent KD of K4 kissing-loop reporter [1] [µM] | apparent KD of K4 kissing-loop reporter [2] [µM]
ACAGAUUGAUUGAUUCACUUUGUAGCUGCGAAGGAUAUUAAGACGCUAAGAAGGUCGCUUAAGGGUAGUGAUGUUACCUUUUGAG [theeternabot_sameState_KL_FMN_A_27] | 0.0573 | 0.055 | 0.0578 | 0.0566 | 0.0514
ACCAUCAAAGAUGGCCAGGACUCAACUGAUACCAGAGUGGAAACACUCCCUUGGCAGCAGGUGAGUGAUGUUCACGAGUCCUGGA [Omel KL Theo A SS B v8] | 0.942 | 0.786 | 0.982 | 0.522 | 0.787
ACCUACCAUUAGUGAUGUUAAUGGACGGAAGGAGCGCGGAUAUCUGCAGGUAGGUCGCCGAAGGCUAGACAUUGUCUAGCCAUUA [AK1 SS Arginine A] | 0.149 | 0.113 | 0.131 | 0.107 | 0.12
ACGCUAGCUACCGAAAGGUAGCUAGCGAGUGAGGAUAUGUGGAAACACAGAAGGCACAGCACAGUGAUGUUGUGCGGCGAAAGCC | 0.587 | 0.249 | 0.932 | 0.522 | 0.729
ACGUAGUACGUAGGAUAUCAGAGAUCAGUUAGUGAGAUCGAGUGAUGUUCGAUCAUGUGUUCAUUUUGAGAAGGAUGUAGUAGGA [KL-SSFMN-B6] | 0.302 | 0.302 | 0.366 | 0.358 | 0.228
ACUACGAAGACGGCCGCCACUGAUAUUCGUAGAUCCAUCAUUGCAUGAGUGAUGUUCAUGUAUAUCAGGACCGGGUCAAGAUGGU [KL-XTryp-B18 #analogue] | 0.295 | 0.245 | 0.305 | 0.282 | 0.213
ACUAGAAAACCAGUGAUGUUGGCCUGGGAUACCAGCUUCUAUUAUAGCCCUUGGCAGCCCUUUAGUACAAGUGACCUUGCGACCG [theeternabot_sameState_KL_Theo_A_9] | 0.299 | 0.217 | 0.452 | 0.217 | 0.277
AGAACUGUCUGAGAUACCAGCUAAGGAGUGAUGUUCCGGCUCGACGAAACGUCGAGCCAUAGCCCUUGGCAGCUCAGACAGUUCA [#27 K4 Theophylline B Same State] | 0.431 | 0.183 | 0.379 | 0.873 | 0.244
AGAACUGUCUUGGAUACCAGUGAUGUUGGUAUCGAUGUGUGAGUGCAAAGCGUCCCACAUCGCCCUUGGCAGCUAAGACUGUUCA [Omei KL Theo B Exc A v4] | 0.287 | 0.238 | 0.302 | 0.349 | 0.257
AGACCACAAAGUGGUCAGUGUUCGCUCCGGCGAGGACCGGUACGGCCGCCACUCGCGAGUGAUGUUCGCGAGUGGAGCGAACACA [Omei KL Tryp A Exc A v1] | 0.0888 | 0.078 | 0.0886 | 0.076 | 0.0863
AGACCACAAAGUGGUCAGUGUUCGCUGCCGCGAGGACCGGUACGGCCGCCACUCGCGAGUGAUGUUCGCGAGGGCAGCGAACACA [Omei KL Tryp A Exc A v4] | 0.0997 | 0.0878 | 0.0879 | 0.0868 | 0.106
AGACUACCACACUGUCAAUAGACAGUGAACUAGGAUAUGCUGAUAAGCAGAAGGAGUGAUGUUCCGAGGUAGUCAAUAAAAUAAU [FmnAX 13 G66] | 0.281 | 0.246 | 0.287 | 0.334 | 0.289
AGACUACCACACUGUCAAUAGACAGUGUACUAGGAUAUGCUGAUAAGCAGAAGGAGUGAUGUUCCUCGGUAGUCAAUAAAAUAAU [FmnAX 13 U28+C67] | 0.22 | 0.3 | 0.286 | 0.35 | 0.276
AGACUACUGACAGGAUAUAACAUACUAGCUCGUAUACCAAAGGUAUACGAGCACCUUCUAGUGAUGUUAGAAGGGUCGGUAGUCA [Omei KL FMN B Exc B v2] | 0.412 | 0.264 | 0.3 | 0.31 | 0.31
AGACUACUGAUAGGAUAUAACAUCCUAGUCGUAUACCGAAAGGUAUACGAUUUCCUUCUAGUGAUGUUAGAAGGGUCGGUAGUCA [Omei KL FMN B Exc B v11] | 0.106 | 0.0824 | 0.0891 | 0.0811 | 0.0891
AGACUUCACCGAAGGAGCGACGUGGCCUAGUGAUGUUAGGUACGAGAGAAAUCUCGUAUACGUCAGGUAGGUCGCGGUGAAGUCA [Omei KL Arginine B SS C v8] | 0.868 | 0.643 | 0.997 | 0.721 | 0.83
AGAGUUAUAUGAGGAUAUGGGAUAGUAACUGAGUGAGUUAUAGUGUAGUUUGUUUAGUGAUGUUAUUUAGAAGGCGUGAGUGAUG [wwwsemullin] | 0.162 | 0.121 | 0.147 | 0.182 | 0.107
AGAGUUAUGCGAGGAUAUGCAGUUAGUACUCAAAGAGUACUAACGCAGAGUGAUGUUCUGUGAAAAGCAGAAGGUGCAUAACUCA [Omei KL FMN B SS B v6] | 0.155 | 0.65 | 0.693 | 0.597 | 0.669
AGAUAGGGCUGAAGGAGCGUCGGAGAAGAGAAGAAGGAAUCCAGUGAUGUUGGAUAAAUCCGACAGGUAGGUCGCAGUUUUAUGA [hbob_SS_Arginine_B_2t138] | 0.108 | 0.126 | 0.099 | 0.109 | 0.115
AGAUGGAAUAGAAGGAGCGGCGCCAGUGAUGUUGGAUGCCGCGGGUGAAUCAGAUCAUAGUGCCAGGUAGGUCGCUAUUUCAGCG [Anedin] | 0.113 | 0.101 | 0.106 | 0.116 | 0.112
AGCCUUACAUCGGCCGCCACUUCCCUGGCAGUGAUGUUGCCGUAGACAAUCAUUCUACCCUGGAGAAGGACCGGGAUGCAGAAAC [theeternabot_sameState_KL_Trp_B_8] | 0.154 | 0.185 | 0.167 | 0.223 | 0.329
